Reference: US20250312499A1, “KISSPEPTIN RECEPTOR (KISS1R) TARGETED THERAPEUTICS AND USES THEREOF” (priority 2024, published 2025)
Numbered stars: 1 amine (or outer) side, 2 acyl side, 3 side chain; on linkers, the order of the positions; unused ones are H or OH. Square brackets hold non-standard residues; d marks the D form. Ends that are not written are not given here. * marks the point of attachment. X2 = 4‑amino‑1‑((3-fluoro-4-methylbenzyl)glycyl)piperidine‑4‑carboxylic acid, Cc1ccc(CN(CC(=O)N2CCC(N[*:1])(C(=O)[*:2])CC2)[*:3])cc1F; X6 = 3‑(2-(2-(3-(p-tolyl)propanamido)ethoxy)ethoxy)propanoyl, Cc1ccc(CCC(=O)NCCOCCOCCC(=O)*)cc1; DOTA = O=C(O)CN1CCN(CC(=O)O)CCN(CC(=O)*)CCN(CC(=O)O)CC1; Api(1-amidino) = N=C(N)N1CCC(N)(C(=O)O)CC1; HO(CH2CH2O)2CH2CH2CO = O=C(CCOCCOCCO)*; Phe(3-F) = N[C@@H](Cc1cccc(F)c1)C(=O)O; d2Nal = N[C@H](Cc1ccc2ccccc2c1)C(=O)O; d4Pal = N[C@H](Cc1ccncc1)C(=O)O; Cha = N[C@@H](CC1CCCCC1)C(=O)O; Octanoyl = CCCCCCCC(=O)*; Ahx = NCCCCCC(=O)O; azaGly = NNC(=O)O; Sar = CNCC(=O)O

B1: Compound 338 (peptide)
peptide: X6-[dY][dK](DOTA)NTF[azaGly]L[Api(1-amidino)]W-NH2
SMILES: Cc1ccc(CCC(=O)NCCOCCOCCC(=O)N[C@H](Cc2ccc(O)cc2)C(=O)N[C@H](CCCCNC(=O)CN2CCN(CC(=O)O)CCN(CC(=O)O)CCN(CC(=O)O)CC2)C(=O)N[C@@H](CC(N)=O)C(=O)N[C@H](C(=O)N[C@@H](Cc2ccccc2)C(=O)NNC(=O)N[C@@H](CC(C)C)C(=O)NC2(C(=O)N[C@@H](Cc3c[nH]c4ccccc34)C(N)=O)CCN(C(=N)N)CC2)[C@@H](C)O)cc1
B2: Compound 17 (peptide)
peptide: {DOTA}-[Sar][Sar]F[azaGly]L[X2]W-NH2
SMILES: Cc1ccc(CNCC(=O)N2CCC(NC(=O)[C@H](CC(C)C)NC(=O)NNC(=O)[C@H](Cc3ccccc3)NC(=O)CN(C)C(=O)CN(C)C(=O)CN3CCN(CC(=O)O)CCN(CC(=O)O)CCN(CC(=O)O)CC3)(C(=O)N[C@@H](Cc3c[nH]c4ccccc34)C(N)=O)CC2)cc1F
B3: Compound 365 (peptide)
peptide: {DOTA}-G[dY][d2Nal]NTF[azaGly]L[X2]W-NH2
SMILES: Cc1ccc(CNCC(=O)N2CCC(NC(=O)[C@H](CC(C)C)NC(=O)NNC(=O)[C@H](Cc3ccccc3)NC(=O)[C@@H](NC(=O)[C@H](CC(N)=O)NC(=O)[C@@H](Cc3ccc4ccccc4c3)NC(=O)[C@@H](Cc3ccc(O)cc3)NC(=O)CNC(=O)CN3CCN(CC(=O)O)CCN(CC(=O)O)CCN(CC(=O)O)CC3)[C@@H](C)O)(C(=O)N[C@@H](Cc3c[nH]c4ccccc34)C(N)=O)CC2)cc1F
B4: Compound 366 (peptide)
peptide: {DOTA-Ahx}-[dY][dW]NTF[azaGly]L[X2]Y-NH2
SMILES: Cc1ccc(CNCC(=O)N2CCC(NC(=O)[C@H](CC(C)C)NC(=O)NNC(=O)[C@H](Cc3ccccc3)NC(=O)[C@@H](NC(=O)[C@H](CC(N)=O)NC(=O)[C@@H](Cc3c[nH]c4ccccc34)NC(=O)[C@@H](Cc3ccc(O)cc3)NC(=O)CCCCCNC(=O)CN3CCN(CC(=O)O)CCN(CC(=O)O)CCN(CC(=O)O)CC3)[C@@H](C)O)(C(=O)N[C@@H](Cc3ccc(O)cc3)C(N)=O)CC2)cc1F
B5: Compound 379 (peptide)
peptide: {HO(CH2CH2O)2CH2CH2CO}-[dY]K(DOTA)NTF[azaGly]L[X2]W-NH2
SMILES: Cc1ccc(CNCC(=O)N2CCC(NC(=O)[C@H](CC(C)C)NC(=O)NNC(=O)[C@H](Cc3ccccc3)NC(=O)[C@@H](NC(=O)[C@H](CC(N)=O)NC(=O)[C@H](CCCCNC(=O)CN3CCN(CC(=O)O)CCN(CC(=O)O)CCN(CC(=O)O)CC3)NC(=O)[C@@H](Cc3ccc(O)cc3)NC(=O)CCOCCOCCO)[C@@H](C)O)(C(=O)N[C@@H](Cc3c[nH]c4ccccc34)C(N)=O)CC2)cc1F
B6: Compound 380 (peptide)
peptide: Ac-[dY]K(DOTA)NTF[azaGly]L[X2]W-NH2
SMILES: CC(=O)N[C@H](Cc1ccc(O)cc1)C(=O)N[C@@H](CCCCNC(=O)CN1CCN(CC(=O)O)CCN(CC(=O)O)CCN(CC(=O)O)CC1)C(=O)N[C@@H](CC(N)=O)C(=O)N[C@H](C(=O)N[C@@H](Cc1ccccc1)C(=O)NNC(=O)N[C@@H](CC(C)C)C(=O)NC1(C(=O)N[C@@H](Cc2c[nH]c3ccccc23)C(N)=O)CCN(C(=O)CNCc2ccc(C)c(F)c2)CC1)[C@@H](C)O
B7: Compound 381 (peptide)
peptide: Octanoyl-[dY]K(DOTA)NTF[azaGly]L[X2]W-NH2
SMILES: CCCCCCCC(=O)N[C@H](Cc1ccc(O)cc1)C(=O)N[C@@H](CCCCNC(=O)CN1CCN(CC(=O)O)CCN(CC(=O)O)CCN(CC(=O)O)CC1)C(=O)N[C@@H](CC(N)=O)C(=O)N[C@H](C(=O)N[C@@H](Cc1ccccc1)C(=O)NNC(=O)N[C@@H](CC(C)C)C(=O)NC1(C(=O)N[C@@H](Cc2c[nH]c3ccccc23)C(N)=O)CCN(C(=O)CNCc2ccc(C)c(F)c2)CC1)[C@@H](C)O
B8: Compound 383 (peptide)
peptide: {DOTA-Ahx}-[dY][dW]NTF[azaGly]L[X2][dW]-NH2
SMILES: Cc1ccc(CNCC(=O)N2CCC(NC(=O)[C@H](CC(C)C)NC(=O)NNC(=O)[C@H](Cc3ccccc3)NC(=O)[C@@H](NC(=O)[C@H](CC(N)=O)NC(=O)[C@@H](Cc3c[nH]c4ccccc34)NC(=O)[C@@H](Cc3ccc(O)cc3)NC(=O)CCCCCNC(=O)CN3CCN(CC(=O)O)CCN(CC(=O)O)CCN(CC(=O)O)CC3)[C@@H](C)O)(C(=O)N[C@H](Cc3c[nH]c4ccccc34)C(N)=O)CC2)cc1F
B9: Compound 20 (peptide)
peptide: {DOTA-Ahx}-[dY]PNTF[azaGly]L[X2]W-NH2
SMILES: Cc1ccc(CNCC(=O)N2CCC(NC(=O)[C@H](CC(C)C)NC(=O)NNC(=O)[C@H](Cc3ccccc3)NC(=O)[C@@H](NC(=O)[C@H](CC(N)=O)NC(=O)[C@@H]3CCCN3C(=O)[C@@H](Cc3ccc(O)cc3)NC(=O)CCCCCNC(=O)CN3CCN(CC(=O)O)CCN(CC(=O)O)CCN(CC(=O)O)CC3)[C@@H](C)O)(C(=O)N[C@@H](Cc3c[nH]c4ccccc34)C(N)=O)CC2)cc1F
B10: Compound 22 (peptide)
peptide: {DOTA-Ahx}-FF[azaGly]L[X2]W-NH2
modifications: not fully specified; numbers in words are those of the source; also: places azaglycine at site 3
B11: Compound 23 (peptide)
peptide: {DOTA}-[dY][d4Pal]NTF[azaGly]L[X2]W-NH2
SMILES: Cc1ccc(CNCC(=O)N2CCC(NC(=O)[C@H](CC(C)C)NC(=O)NNC(=O)[C@H](Cc3ccccc3)NC(=O)[C@@H](NC(=O)[C@H](CC(N)=O)NC(=O)[C@@H](Cc3ccncc3)NC(=O)[C@@H](Cc3ccc(O)cc3)NC(=O)CN3CCN(CC(=O)O)CCN(CC(=O)O)CCN(CC(=O)O)CC3)[C@@H](C)O)(C(=O)N[C@@H](Cc3c[nH]c4ccccc34)C(N)=O)CC2)cc1F

biological target: human kisspeptin receptor (KISS1R) (human), Q969F8; experiment: radioligand competition, hKISS1R membranes; legend: A is <10 nM
Sequence (Q969F8 whole entry): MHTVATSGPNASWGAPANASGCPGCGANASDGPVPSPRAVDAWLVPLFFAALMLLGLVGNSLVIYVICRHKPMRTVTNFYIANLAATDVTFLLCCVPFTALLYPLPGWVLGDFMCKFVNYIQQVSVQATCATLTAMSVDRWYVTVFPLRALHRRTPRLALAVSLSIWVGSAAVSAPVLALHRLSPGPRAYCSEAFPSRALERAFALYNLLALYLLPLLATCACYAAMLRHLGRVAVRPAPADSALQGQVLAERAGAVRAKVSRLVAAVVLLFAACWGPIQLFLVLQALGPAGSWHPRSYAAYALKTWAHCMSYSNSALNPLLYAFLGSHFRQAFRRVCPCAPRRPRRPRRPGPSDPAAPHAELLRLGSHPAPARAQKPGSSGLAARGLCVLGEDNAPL

Ki, < 10 nM:
B1
B2
Octanoyl-[dY][dK](DOTA)NTF[azaGly]L[4‑amino‑1‑carbamimidoylpiperidine‑4‑carboxylic acid(Sarcosine)][dW]-NH2 [Compound 353]
Octanoyl-[dY][dK](DOTA)NTF[azaGly]L[4‑amino‑1‑carbamimidoylpiperidine‑4‑carboxylic acid(Sarcosine)]W-NH2 [Compound 354]
Octanoyl-[dY][dK](DOTA)NT[Cha][azaGly]L[4‑amino‑1‑carbamimidoylpiperidine‑4‑carboxylic acid(Sarcosine)][dW]-NH2 [Compound 355]
X6-[dY]K(DOTA)NT[Cha][azaGly]L[4‑amino‑1‑carbamimidoylpiperidine‑4‑carboxylic acid(Sarcosine)][dW]-NH2 [Compound 356]
X6-[dY]K(DOTA)NT[Cha][azaGly]L[4‑amino‑1‑carbamimidoylpiperidine‑4‑carboxylic acid(Sarcosine)]W-NH2 [Compound 357]
X6-[dY][dK](DOTA)NT[Cha][azaGly]L[4‑amino‑1‑carbamimidoylpiperidine‑4‑carboxylic acid(Sarcosine)][dW]-NH2 [Compound 358]
{1‑(3-fluoro-4-methylphenyl)‑4‑oxo‑8,11‑dioxa‑2,5‑diazatetradecan‑14‑oyl}-[dY]K(DOTA)NTF[azaGly]L[4‑amino‑1‑carbamimidoylpiperidine‑4‑carboxylic acid(Sarcosine)][dW]-NH2 [Compound 359]
[N‑(3-fluoro-4-methylbenzyl)glycine][dY]K(DOTA)NTF[azaGly]L[4‑amino‑1‑carbamimidoylpiperidine‑4‑carboxylic acid(Sarcosine)][dW]-NH2 [Compound 360]
B3
B4
{DOTA-NH‑PEG2‑propanoyl}-[dY][d4Pal]NTF[azaGly]L[X2]W-NH2 [Compound 368]
B5
B6
B7
{DOTA-NH‑PEG2‑propanoyl}-[dY][dW]NTF[azaGly]L[X2]W-NH2 [Compound 382]
B8
[dY]K(DOTA)NTF[azaGly]L[4‑amino‑1‑carbamimidoylpiperidine‑4‑carboxylic acid(Sarcosine)]W-NH2 (not fully specified (N-terminus)) [Compound 384]
X6-[dY]K(DOTA)NT[Cha][azaGly]L[4‑amino‑1‑carbamimidoylpiperidine‑4‑carboxylic acid(Sarcosine)]W-NH2 [Compound 387]
X6-[dY][dK](DOTA)NT[Cha][azaGly]L[4‑amino‑1‑carbamimidoylpiperidine‑4‑carboxylic acid(Sarcosine)]W-NH2 [Compound 388]
B9
B10
B11
{DOTA-2‑(4-aminopiperidin-1-yl)acetic acid}-[dY]ENT[Phe(3-F)][azaGly]L[X2]W-NH2 [Compound 24]
{DOTA-4‑(aminomethyl)cyclohexanecarboxylic acid}-F[azaGly]L[X2]W-NH2 [Compound 25]
